# Experimental data published in patent US20040091953.
# T1: hSIRT3-FLAG, full-length 44 kDa form
# T1 chain: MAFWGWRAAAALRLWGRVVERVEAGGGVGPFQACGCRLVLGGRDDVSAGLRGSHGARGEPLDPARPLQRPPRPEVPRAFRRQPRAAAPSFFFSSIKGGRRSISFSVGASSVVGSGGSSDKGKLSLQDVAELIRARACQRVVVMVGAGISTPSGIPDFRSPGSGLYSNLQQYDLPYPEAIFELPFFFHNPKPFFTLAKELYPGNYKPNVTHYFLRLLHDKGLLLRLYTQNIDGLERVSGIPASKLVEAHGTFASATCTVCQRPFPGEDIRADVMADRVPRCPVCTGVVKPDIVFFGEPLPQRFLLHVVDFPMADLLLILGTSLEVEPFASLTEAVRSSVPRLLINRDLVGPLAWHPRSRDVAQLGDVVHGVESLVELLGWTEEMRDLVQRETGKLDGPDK
# T2: hSIRT3R99/100G-FLAG
# T2 chain: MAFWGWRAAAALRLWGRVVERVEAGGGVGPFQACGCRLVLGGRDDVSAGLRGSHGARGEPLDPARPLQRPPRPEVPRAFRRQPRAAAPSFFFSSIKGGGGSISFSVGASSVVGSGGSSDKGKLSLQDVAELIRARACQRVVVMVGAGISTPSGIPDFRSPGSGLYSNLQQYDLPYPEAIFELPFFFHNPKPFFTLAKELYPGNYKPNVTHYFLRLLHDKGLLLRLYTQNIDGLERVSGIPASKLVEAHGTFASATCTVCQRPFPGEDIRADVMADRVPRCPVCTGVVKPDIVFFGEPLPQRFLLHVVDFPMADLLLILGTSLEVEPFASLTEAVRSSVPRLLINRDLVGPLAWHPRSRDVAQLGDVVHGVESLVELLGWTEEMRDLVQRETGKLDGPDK
# B1: purified recombinant yeast MPP (protein)
# chain 1: ARTDNFKLSSLANGLKVATSNTPGHFSALGLYIDAGSRFEGRNLKGCTHILDRLAFKSTEHVEGRAMAETLELLGGNYQCTSSRENLMYQASVFNQDVGKMLQLMSETVRFPKITEQELQEQKLSAEYEIDEVWMKPELVLPELLHTAAYSGETLGSPLICPRELIPSISKYYLLDYRNKFYTPENTVAAFVGVPHEKALELTEKYLGDWQSTHPPITKKVAQYTGGESCIPPAPVFGNLPELFHIQIGFEGLPIDHPDIYALATLQTLLGGGGSFSAGGPGKGMYSRLYTHVLNQYYFVENCVAFNHSYSDSGIFGISLSCIPQAAPQAVEVIAQQMYNTFANKDLRLTEDEVSRAKNQLKSSLLMNLESKLVELEDMGRQVLMHGRKIPVNEMISKIEDLKPDDISRVAEMIFTGNVNNAGNGKGRATVVMQGDRGSFGDVENVLKAYGLGNSSSSKNDSPKKKGWF
# chain 2: SQIPGTRTSKLPNGLTIATEYIPNTSSATVGIFVDAGSRAENVKNNGTAHFLEHLAFKGTQNRSQQGIELEIENIGSHLNAYTSRENTVYYAKSLQEDIPKAVDILSDILTKSVLDNSAIERERDVIIRESEEVDKMYDEVVFDHLHEITYKDQPLGRTILGPIKNIKSITRTDLKDYITKNYKGDRMVLAGAGAVDHEKLVQYAQKYFGHVPKSESPVPLGSPRGPLPVFCRGERFIKENTLPTTHIAIALEGVSWSAPDYFVALATQAIVGNWDRAIGTGTNSPSPLAVAASQNGSLANSYMSFSTSYADSGLWGMYIVTDSNEHNVQLIVNEILKEWKRIKSGKISDAEVNRAKAQLKAALLLSLDGSTAIVEDIGRQVVTTGKRLSPEEVFEQVDKITKDDIIMWANYRLQNKPVSMVALGNTSTVPNVSYIEEKLNQ
# Experiments:
# [1] = target: T1, hSIRT3-FLAG, full-length 44 kDa form
# [2] = target: fusion protein between subunit 9 of F0/F1-ATPase and DHFR
# [3] = target: other hSIRT3 mutants targeting arginine residues at positions 133, 135, 139 and 158
# [4] = target: T2, hSIRT3R99/100G-FLAG
protein,measurement,setting,value
B1,cleavage by MPP in vitro,[1],led to its cleavage to a product of ˜28 KDa
same,cleavage by MPP in vitro,[2],resulted in the appearance of digestion products similar to what has been previously reported
same,cleavage by MPP in vitro,[3],other mutants were unaffected
same,cleavage by MPP in vitro,[4],showed abrogation of cleavage by MPP in vitro
